# Results taken from the supplement of paper PMC7877785.
# ± gives the uncertainty stated by the source.
# Assay: self-splicing fitness, log relative to wild type (ln ratio); higher = more splicing; Tetrahymena group I intron in knt gene, E. coli kanamycin selection, DiMSum; sequences stand for … in CUCUCU…GGAGGGAAAAGUUAUCAGGCAUGCACCUGGUAGCUAGUCUUUAAACCAAUAGAUUGCAUCGGUUUAAAAGGCAAGACCGUCAAAUUGCGGGAAAGGGGUCAACAGCCGUUCAGUACCAAGUCUCAGGGGAAACUUUGAGAUGGCCUUGCAAAGGGUAUGGUAAUAAGCUGACGGACAUGGUCCUAACCACGCAGCCAAGUCCUAAGUCAACAGAUCUUCUGUUGAUAUGGAUGCAGUUCACAGACUAAAUGUCGGUCGGGGAAGAUGUAUUCUUCUCAUAAGAUAUAGUCGGACCUCUCCUUAAUGGGAGCUAGCGGAUGAAGUGAUGCAACACUGGAGCCGCUGGGAACUAAUUUGUAUGCGAAAGUAUAUUGAUUAGUUUUGGAGUACUCGUGGUCG
# Summary of the method: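 Colonies from six replicate transformations of E. coli BL21(DE3) were pooled and amplicon-sequenced on an Illumina HiSeq 2500. The library placed an intron with all eight P1ex-region nucleotides randomised inside the knt kanamycin-resistance gene on pET-22b(+), and cells grew overnight at 37°C or 30°C on LB agar with or without 25 μg/mL kanamycin (plus 100 μg/mL carbenicillin, 50 μM IPTG, 0.2% rhamnose). Fitness is the DiMSum error-weighted combination of wild-type-normalised replicate fold changes, kanamycin versus none.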
Sequence,self-splicing fitness (ln) (30 °C),self-splicing fitness (ln) (37 °C)
AACAAGCAAUAUUACGCUUG,-2.82 ± 0.12,-2.28 ± 0.16
AACAAGCAAUAUUACGGAGA,-3.58 ± 0.23,-3.19 ± 0.24
AACAAGCAAUAUUACGGCGA,-0.0322 ± 0.064,-0.329 ± 0.071
AACAAGCAAUAUUACGGCUA,-0.414 ± 0.067,0.274 ± 0.092
AACAAGCAAUAUUACGGGCG,-0.896 ± 0.075,-1.08 ± 0.089
AACAAGCAAUAUUACGGGUA,-0.841 ± 0.063,-0.307 ± 0.071
AACAAGCAAUAUUACGUAAC,-3.29 ± 0.12,-2.33 ± 0.17
AACAAGCAAUAUUACGUAGG,-2.76 ± 0.086,-1.57 ± 0.1
AACAAGCAAUAUUACGUCCG,-1.26 ± 0.067,-0.444 ± 0.085
AACAAGCAAUAUUACGUGAC,-2.94 ± 0.095,-2.34 ± 0.12
AACCAGCAAUAUUACGAAAU,-1.08 ± 0.058,-0.397 ± 0.074
AACCAGCAAUAUUACGAAUC,-1.65 ± 0.094,-0.882 ± 0.1
AACCAGCAAUAUUACGACAU,-0.243 ± 0.01,0.152 ± 0.031
AACCAGCAAUAUUACGACCA,-0.702 ± 0.082,0.122 ± 0.11
AACCAGCAAUAUUACGACGA,-0.496 ± 0.076,-0.38 ± 0.071
AACCAGCAAUAUUACGAUCG,-0.866 ± 0.084,-0.752 ± 0.099
AACCAGCAAUAUUACGAUCU,-0.425 ± 0.052,0.391 ± 0.074
AACCAGCAAUAUUACGAUGC,-1.49 ± 0.076,-0.673 ± 0.082
AACCAGCAAUAUUACGAUGG,-2.91 ± 0.11,-2.76 ± 0.14
AACCAGCAAUAUUACGCGAU,-3.69 ± 0.19,-1.77 ± 0.15
AACCAGCAAUAUUACGCGCU,-2.01 ± 0.13,-0.894 ± 0.13
AACCAGCAAUAUUACGCGGG,-4.5 ± 0.24,-3.16 ± 0.24
AACCAGCAAUAUUACGGCGG,-0.585 ± 0.059,-0.164 ± 0.078
AACCAGCAAUAUUACGGCUU,-0.621 ± 0.056,0.209 ± 0.082
AACCAGCAAUAUUACGGUUC,-3.75 ± 0.14,-2.43 ± 0.17
AACCAGCAAUAUUACGUACA,-1.08 ± 0.08,-0.429 ± 0.11

Sequence,self-splicing fitness (ln) (30 °C),self-splicing fitness (ln) (37 °C)
AACCAGCAAUAUUACGUAGU,-1.99 ± 0.06,-1.42 ± 0.071
AACCAGCAAUAUUACGUAUU,-1.79 ± 0.072,-0.754 ± 0.08
AACCAGCAAUAUUACGUCCG,-1.56 ± 0.073,-0.0163 ± 0.091
AACCAGCAAUAUUACGUUAA,-1.83 ± 0.086,-1.26 ± 0.085
AACCAGCAAUAUUACGUUCG,-2.59 ± 0.15,-1.63 ± 0.13
AACCAGCAAUAUUACGUUUG,-2.83 ± 0.077,-2.31 ± 0.1
AACGAGCAAUAUUACGAAUA,,-1.63 ± 0.34
AACGAGCAAUAUUACGACGG,-4.27 ± 0.37,-2.04 ± 0.23
AACGAGCAAUAUUACGAUAG,-3.04 ± 0.22,-2.49 ± 0.22
AACGAGCAAUAUUACGAUGU,-2.35 ± 0.2,-1.99 ± 0.17
AACGAGCAAUAUUACGCACA,-2.86 ± 0.23,-2.09 ± 0.21
AACGAGCAAUAUUACGCGUU,-4.34 ± 0.2,-2.42 ± 0.14
AACGAGCAAUAUUACGCUCG,-2.55 ± 0.35,
AACGAGCAAUAUUACGCUGG,-3.72 ± 0.31,-0.45 ± 0.16
AACGAGCAAUAUUACGGAAC,-2.26 ± 0.23,
AACGAGCAAUAUUACGGAAU,-2.84 ± 0.24,-1.81 ± 0.22
AACGAGCAAUAUUACGGACC,-2.49 ± 0.15,-1.55 ± 0.22
AACGAGCAAUAUUACGGAGG,-2.79 ± 0.19,-2.38 ± 0.27
AACGAGCAAUAUUACGGAUG,-3.34 ± 0.31,
AACGAGCAAUAUUACGGCGA,-1.95 ± 0.23,-0.978 ± 0.2
AACGAGCAAUAUUACGGGAA,-2.18 ± 0.22,-2.74 ± 0.27
AACGAGCAAUAUUACGGGGG,-3.29 ± 0.26,-3.01 ± 0.37
AACGAGCAAUAUUACGGUGG,-3.68 ± 0.32,-2.05 ± 0.34
AACGAGCAAUAUUACGUACG,-4.19 ± 0.46,-1.63 ± 0.35
AACGAGCAAUAUUACGUCCU,-1.04 ± 0.079,-0.143 ± 0.095
AACGAGCAAUAUUACGUCGU,-2.5 ± 0.23,-2.9 ± 0.31

Sequence,self-splicing fitness (ln) (30 °C),self-splicing fitness (ln) (37 °C)
AACGAGCAAUAUUACGUGCA,-2.58 ± 0.13,-2.01 ± 0.18
AACGAGCAAUAUUACGUUAU,-3.69 ± 0.16,-1.52 ± 0.11
AACUAGCAAUAUUACGAAUG,-2.36 ± 0.11,-1.69 ± 0.12
AACUAGCAAUAUUACGAUCC,0.0588 ± 0.16,0.358 ± 0.19
AACUAGCAAUAUUACGAUUG,-2.97 ± 0.12,-1.23 ± 0.12
AACUAGCAAUAUUACGCAGC,-3.32 ± 0.25,-2.98 ± 0.43
AACUAGCAAUAUUACGCCAC,,-1.79 ± 0.36
AACUAGCAAUAUUACGCGUG,-1.53 ± 0.08,-0.485 ± 0.09
AACUAGCAAUAUUACGCGUU,-3.51 ± 0.19,-2.48 ± 0.29
AACUAGCAAUAUUACGCUUU,-2.44 ± 0.097,-1.71 ± 0.12
AACUAGCAAUAUUACGGAGG,-3.08 ± 0.2,-1.99 ± 0.22
AACUAGCAAUAUUACGGCUG,-1.02 ± 0.098,-0.0943 ± 0.15
AACUAGCAAUAUUACGGGAA,-1.5 ± 0.074,-1.13 ± 0.084
AACUAGCAAUAUUACGGGAC,-3.22 ± 0.3,-1.08 ± 0.17
AACUAGCAAUAUUACGGGCG,-0.139 ± 0.081,-0.0101 ± 0.11
AACUAGCAAUAUUACGGGGG,-2.73 ± 0.2,-1.53 ± 0.22
AACUAGCAAUAUUACGGGUA,-0.761 ± 0.072,-0.0817 ± 0.07
AACUAGCAAUAUUACGUGAG,-1.28 ± 0.075,-1.03 ± 0.1
AACUAGCAAUAUUACGUGCC,-1.39 ± 0.12,-0.755 ± 0.13
AACUAGCAAUAUUACGUGUC,-4.26 ± 0.19,-1.25 ± 0.1
AACUAGCAAUAUUACGUUCC,-2.63 ± 0.22,-1.93 ± 0.24
AACUAGCAAUAUUACGUUUU,-3.52 ± 0.097,-1.32 ± 0.075
AAGAAGCAAUAUUACGAAAA,-1.8 ± 0.17,-1.57 ± 0.18
AAGAAGCAAUAUUACGAAGC,-3.02 ± 0.18,-2.43 ± 0.28
AAGAAGCAAUAUUACGAUCA,-0.455 ± 0.08,-0.229 ± 0.099
